Source: PMC5042399

Legend:
[1] = target: DNA topoisomerase I (TOP1), full-length recombinant (UniProt P11387)
[2] = target: DNA topoisomerase IIα (TOP2A), recombinant (UniProt P11388)
Chain of UniProt P11388 (P11388 whole entry): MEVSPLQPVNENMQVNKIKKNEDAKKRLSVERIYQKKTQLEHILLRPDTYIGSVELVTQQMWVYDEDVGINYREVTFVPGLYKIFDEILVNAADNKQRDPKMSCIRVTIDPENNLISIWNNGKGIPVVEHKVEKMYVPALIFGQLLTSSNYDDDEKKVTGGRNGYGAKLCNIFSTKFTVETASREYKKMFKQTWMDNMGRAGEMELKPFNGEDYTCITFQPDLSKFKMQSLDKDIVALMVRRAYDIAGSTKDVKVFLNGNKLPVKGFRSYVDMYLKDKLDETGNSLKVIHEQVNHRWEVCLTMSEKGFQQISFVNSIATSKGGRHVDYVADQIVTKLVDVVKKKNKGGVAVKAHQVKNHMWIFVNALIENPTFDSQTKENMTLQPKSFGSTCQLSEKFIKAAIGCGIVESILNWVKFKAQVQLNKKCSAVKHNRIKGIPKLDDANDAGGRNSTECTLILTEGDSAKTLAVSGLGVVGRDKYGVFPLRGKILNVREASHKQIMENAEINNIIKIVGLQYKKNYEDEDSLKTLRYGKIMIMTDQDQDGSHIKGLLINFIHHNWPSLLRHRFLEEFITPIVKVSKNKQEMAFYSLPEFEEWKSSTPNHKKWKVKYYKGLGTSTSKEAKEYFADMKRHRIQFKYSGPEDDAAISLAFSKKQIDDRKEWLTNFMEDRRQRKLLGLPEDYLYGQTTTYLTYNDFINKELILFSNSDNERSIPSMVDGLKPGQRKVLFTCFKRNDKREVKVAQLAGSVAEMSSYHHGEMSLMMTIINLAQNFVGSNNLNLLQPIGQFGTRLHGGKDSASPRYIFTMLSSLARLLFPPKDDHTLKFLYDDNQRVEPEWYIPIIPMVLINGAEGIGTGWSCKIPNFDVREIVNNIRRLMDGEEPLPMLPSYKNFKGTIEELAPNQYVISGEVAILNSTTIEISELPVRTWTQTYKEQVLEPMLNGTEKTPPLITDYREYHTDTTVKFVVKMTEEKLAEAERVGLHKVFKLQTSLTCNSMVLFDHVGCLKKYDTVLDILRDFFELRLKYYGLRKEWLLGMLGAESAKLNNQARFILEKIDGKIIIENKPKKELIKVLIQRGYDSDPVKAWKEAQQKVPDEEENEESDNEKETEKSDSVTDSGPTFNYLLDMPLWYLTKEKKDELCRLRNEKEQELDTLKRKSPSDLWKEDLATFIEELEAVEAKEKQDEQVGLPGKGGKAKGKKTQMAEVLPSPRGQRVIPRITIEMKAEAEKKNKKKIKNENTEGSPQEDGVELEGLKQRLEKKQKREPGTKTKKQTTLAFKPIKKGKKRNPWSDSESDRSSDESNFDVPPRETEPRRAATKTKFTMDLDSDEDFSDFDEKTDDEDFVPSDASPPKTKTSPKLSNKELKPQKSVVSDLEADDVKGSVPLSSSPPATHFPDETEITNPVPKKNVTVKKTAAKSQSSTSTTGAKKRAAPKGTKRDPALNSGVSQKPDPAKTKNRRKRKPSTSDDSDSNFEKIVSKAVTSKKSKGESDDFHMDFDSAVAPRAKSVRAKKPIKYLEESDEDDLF

Chain of UniProt P11387 (P11387 whole entry): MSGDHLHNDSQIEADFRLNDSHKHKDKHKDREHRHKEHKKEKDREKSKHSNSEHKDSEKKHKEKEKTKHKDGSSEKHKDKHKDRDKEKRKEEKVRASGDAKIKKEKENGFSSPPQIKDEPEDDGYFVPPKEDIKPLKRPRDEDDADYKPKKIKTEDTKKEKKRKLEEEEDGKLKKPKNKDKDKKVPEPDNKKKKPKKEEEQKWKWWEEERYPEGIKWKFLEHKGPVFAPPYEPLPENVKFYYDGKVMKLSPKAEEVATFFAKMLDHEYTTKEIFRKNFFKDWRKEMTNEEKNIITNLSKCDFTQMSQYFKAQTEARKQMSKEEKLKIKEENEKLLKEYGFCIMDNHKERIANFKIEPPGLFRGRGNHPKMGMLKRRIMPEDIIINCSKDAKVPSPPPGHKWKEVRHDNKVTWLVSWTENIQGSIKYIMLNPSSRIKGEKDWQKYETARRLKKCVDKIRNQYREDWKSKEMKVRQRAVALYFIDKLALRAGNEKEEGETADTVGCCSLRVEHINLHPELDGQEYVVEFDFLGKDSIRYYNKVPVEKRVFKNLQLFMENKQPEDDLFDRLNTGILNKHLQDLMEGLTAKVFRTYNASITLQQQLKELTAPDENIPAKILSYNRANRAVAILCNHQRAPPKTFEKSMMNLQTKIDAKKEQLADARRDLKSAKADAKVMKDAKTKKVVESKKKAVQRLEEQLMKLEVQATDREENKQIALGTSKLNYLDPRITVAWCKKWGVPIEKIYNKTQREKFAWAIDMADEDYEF

| stimulation of BLM unwinding of RNA:DNA substrate by a two-fold molar excess of TOP1 (specific activity with against without TOP1) [1] [fold] | stimulation of BLM unwinding of dsDNA substrate by 7 nM TOP2A (fold change relative to minus TOP2A) [2] [fold] | Substance |
| --- | --- | --- |
| 1.5 |  | BLM wild-type (WT), recombinant (from UniProt P54132 1-1417) (enzyme) |
|  | 3 | BLM-Δ1332–1349, recombinant (from UniProt P54132 1-1417) (enzyme) |
